{"source": "paper PMC5503752", "about": "(Biophysical chemistry, 2017)", "test_in_all_cases": "other fluorescence titration", "key": {"[1]": {"molecular_target": "T1, N-domain fragment of calmodulin (CaMN, residues 1-75) (paramecium, UniProt P07463 2-76)"}, "[2]": {"molecular_target": "T2, Full-length, wild-type calmodulin (paramecium sequence) (paramecium, UniProt P07463 1-149)"}, "[3]": {"molecular_target": "T3, C-domain fragment of calmodulin (CaMC, residues 76-148) (paramecium, UniProt P07463 77-149)"}, "[4]": {"molecular_target": "T1, N-domain fragment of calmodulin (CaMN, …)", "remark": "listed apart in the source"}, "[5]": {"molecular_target": "T2, Full-length, wild-type calmodulin …", "remark": "listed apart in the source"}, "[6]": {"molecular_target": "T3, C-domain fragment of calmodulin (CaMC, …)", "remark": "listed apart in the source"}}, "note": "Like-named read-outs stand apart in the source and are kept apart here.", "data": [{"binder": "KRKQEEVSAIVIQRAYRRYLLKQKVKK (domain or fragment)", "note": "[NaV1.2 IQ biosensor (rat NaV1.2 residues 1901-1927 flanked by YFP and CFP)]", "values": [{"measurement": "Kd", "setting": "[1]", "result": "> 100000", "unit": "nM"}, {"measurement": "Kd", "setting": "[2]", "result": 85, "unit": "nM"}, {"measurement": "Kd", "setting": "[3]", "result": 386, "unit": "nM"}, {"measurement": "Kd", "setting": "[4]", "result": "> 100000", "unit": "nM"}, {"measurement": "Kd", "setting": "[5]", "result": 3.2, "unit": "nM"}, {"measurement": "Kd", "setting": "[6]", "result": 11.6, "unit": "nM"}]}]}
